# According to publication PMC8008698:
# Biological target: SARS 2-Helix (single-chain fusion core of SARS-CoV spike protein: HR1, 22-amino acid linker, HR2) (SARS coronavirus GZ02)
# Assay: crystal structure
substance,measurement,value
"SARS 2-Helix (single-chain fusion core of SARS-CoV spike protein: HR1, 22-amino acid linker, HR2) (domain or fragment)",stoichiometry N,3
